One assay concerns the target rhPD-L1 (human, UniProt Q9NZQ7). Description: ELISA. (In general: ELISA stands for enzyme-linked immunosorbent assay.)
For assay [1], the target named is T1, PD-L1 (human, UniProt Q9NZQ7). As to the kind of experiment: FACS, 4C. (In general: In flow cytometry, cells or beads pass a laser one at a time.)
Assay [2] addresses T1, PD-L1. As to the kind of experiment: competition, FACS blocking of biotin-PD-1, 4C.
Another assay has as its target SSTR4 (human, UniProt P31391). Description: FACS, membrane proteome array titration.

T1 sequence (Q9NZQ7 19-238): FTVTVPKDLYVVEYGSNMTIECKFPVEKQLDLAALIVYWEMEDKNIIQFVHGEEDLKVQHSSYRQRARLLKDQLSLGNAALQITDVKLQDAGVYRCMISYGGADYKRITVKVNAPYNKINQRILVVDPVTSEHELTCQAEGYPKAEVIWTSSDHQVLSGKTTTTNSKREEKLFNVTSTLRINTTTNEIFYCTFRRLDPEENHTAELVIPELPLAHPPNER
rhPD-L1, sequence (Q9NZQ7 19-238): as above
SSTR4, sequence (P31391 whole entry): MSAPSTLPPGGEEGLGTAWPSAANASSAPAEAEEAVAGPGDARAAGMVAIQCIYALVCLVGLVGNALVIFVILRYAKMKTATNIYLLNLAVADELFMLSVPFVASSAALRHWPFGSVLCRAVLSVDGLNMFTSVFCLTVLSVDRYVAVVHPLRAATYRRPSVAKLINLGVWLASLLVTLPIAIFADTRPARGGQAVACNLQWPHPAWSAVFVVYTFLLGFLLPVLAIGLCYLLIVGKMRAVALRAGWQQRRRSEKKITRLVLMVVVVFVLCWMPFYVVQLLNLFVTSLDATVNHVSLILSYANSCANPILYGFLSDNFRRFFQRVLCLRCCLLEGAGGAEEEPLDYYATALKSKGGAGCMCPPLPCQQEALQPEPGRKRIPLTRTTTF

B1: TCRC-L2 (antibody, V domains shown)
VH: EVQLQESGPSLVKPSQTLSLTCSVTGDSITSGYWNWIRKFPENKLEYMGYISFTGSTYYNPSLKSRISITRDTSKNQYYLQLNSVTTEDTATYYCARKREWILHPMDYWGQGTSVTVSS
VL: ENVLTQSPAIMSASPGEKVTMTCSASSSVSYMHWYQQKSLTSPKLWIYDTSKLASGVPGRFSGSGSGNFYSLTISSMEAEDVATYYCFQESGYPLTFGAGTKLELK
For B1, the values for the Kd with rhPD-L1 and with PD-L1 [1] were 0.04 mg/L and 0.074 mg/L, respectively. Also, the midpoint of the response with PD-L1 [2], the EC50, lay at 0.074 mg/L.

B2: TCRC-L8 (antibody, V domains shown)
VH: QVQLQESGPGLVKPSETLSLTCTVSGDSITSGYWNWIRQPPGKGLEYMGYISFTGSTYYNPSLKSRVTISVDTSKNQFSLKLSSVTAADTAVYYCARKREWILHPMDYWGQGTLVTVSS
VL: AIQLTQSPSSLSASVGDRVTITCSASSSVSYMHWYQQKPGKAPKLWIYDTSKLASGVPSRFSGSGSGTDFTLTISSLQPEDFATYYCFQESGYPLTFGGGTKLTVL
As to B2, the dissociation constant Kd (usually a measure of binding affinity in units of concentration) with rhPD-L1 came to 0.036 mg/L; with PD-L1 [1] it was 0.058 mg/L. In the assay with SSTR4, the binding result is recorded as “no binding”. For the same molecule, a half-maximal response with PD-L1 [2] (EC50) required 0.058 mg/L.

For the origin of these results see patent US20260317389 (published 2026).
